{"source": "patent US20260151496A1", "about": "(FUDAN UNIVERSITY, published 2026)", "binders": {"B1": {"name": "HER2 VHH-FC1 fusion protein 2-F03 (Fc fusion)", "chain": "EVQLVESGGGLVQPGGSLRLSCAASGLTFRRYHMSWYRQAPGKERELVAVISDTGTTNYAESVKGRFTISRDNSRSTVFLQLNSLKPDDTAVYYCNGRWPAVAADWWGQGTQVTVSSEPKSSDKTHTCPPCPAPEFEGGPSVFLFPPKPKDTLMISRTPEVTCVVVDVSHEDPEVKFNWYVDGVEVHNAKTKPREEQYNSTYRVVSVLTVLHQDWLNGKEYKCKVSNKALPASIEKTISKAKGQPREPQVYTLPPSRDELTKNQVSLTCLVKGFYPSDIAVEWESNGQPENNYKTTPPVLDSDGSFFLYSKLTVDKSRWQQGNVFSCSVMHEALHNHYTQKSLSLSPGK", "notes": "25; also called 2-F03-FC1; chimeric nanobody 2-F03"}, "B2": {"name": "HER2 VHH-FC1 fusion protein 1-C09 (Fc fusion)", "chain": "DVQLVESGGGLVQPGGSLRLSCEASGLTFRRYHFSWYRQPPGKERELVAVISDTGSTTNYTDSVKGRFTISRDLARNTVFLQLNSLKPDDTAVYYCNAKWPIIAADWWGQGTQVTVSSEPKSSDKTHTCPPCPAPEFEGGPSVFLFPPKPKDTLMISRTPEVTCVVVDVSHEDPEVKFNWYVDGVEVHNAKTKPREEQYNSTYRVVSVLTVLHQDWLNGKEYKCKVSNKALPASIEKTISKAKGQPREPQVYTLPPSRDELTKNQVSLTCLVKGFYPSDIAVEWESNGQPENNYKTTPPVLDSDGSFFLYSKLTVDKSRWQQGNVFSCSVMHEALHNHYTQKSLSLSPGK", "notes": "25; also called 1-C09-FC1; 1-C9-FC1"}, "B3": {"name": "HER2 VHH-FC1 fusion protein 1-G07 (Fc fusion)", "chain": "QVQLVESGGGKAQPGGSLRLSCVASRITFRHYDLSWYRQAPGQERELVATVTNGGVITYADSVKGRFTISRDNAKNTVQLQMNNLKPEDTAVYYCNAVWVYLQRLTQNKKENDYWGPGTQVTVSSEPKSSDKTHTCPPCPAPEFEGGPSVFLFPPKPKDTLMISRTPEVTCVVVDVSHEDPEVKFNWYVDGVEVHNAKTKPREEQYNSTYRVVSVLTVLHQDWLNGKEYKCKVSNKALPASIEKTISKAKGQPREPQVYTLPPSRDELTKNQVSLTCLVKGFYPSDIAVEWESNGQPENNYKTTPPVLDSDGSFFLYSKLTVDKSRWQQGNVFSCSVMHEALHNHYTQKSLSLSPGK", "notes": "25; also called 1-G07-FC1; chimeric nanobody 1-G07"}, "B4": {"name": "HER2 VHH-FC1 fusion protein 1-B05 (Fc fusion)", "chain": "AVQLVESGGGPGGSLRLSCAASGITFFRHTLGWYRQAPGKQRELVASITGGESTNYADSVKSRFTISRDNAKNMVFLQMNSLKPEDTALYYCNSKWDAAGVEFWGKGTLVTVSSEPKSSDKTHTCPPCPAPEFEGGPSVFLFPPKPKDTLMISRTPEVTCVVVDVSHEDPEVKFNWYVDGVEVHNAKTKPREEQYNSTYRVVSVLTVLHQDWLNGKEYKCKVSNKALPASIEKTISKAKGQPREPQVYTLPPSRDELTKNQVSLTCLVKGFYPSDIAVEWESNGQPENNYKTTPPVLDSDGSFFLYSKLTVDKSRWQQGNVFSCSVMHEALHNHYTQKSLSLSPGK", "notes": "25; also called 1-B05-FC1; chimeric nanobody 1-B05"}, "B5": {"name": "HER2 VHH-FC1 fusion protein 2-C07 (Fc fusion)", "chain": "AVQLVESGGGLVQPGGSLRLSCAASGLTFMRYDINWYRQAPGKERELVAALDSSSGRTNYADFTEGRFTISRNNAKNSAYLQMNNLKPEDTASYYCNAQWKRIGADYWGQGTQVTVFSEPKSSDKTHTCPPCPAPEFEGGPSVFLFPPKPKDTLMISRTPEVTCVVVDVSHEDPEVKFNWYVDGVEVHNAKTKPREEQYNSTYRVVSVLTVLHQDWLNGKEYKCKVSNKALPASIEKTISKAKGQPREPQVYTLPPSRDELTKNQVSLTCLVKGFYPSDIAVEWESNGQPENNYKTTPPVLDSDGSFFLYSKLTVDKSRWQQGNVFSCSVMHEALHNHYTQKSLSLSPGK", "notes": "25; also called 2-C07-FC1; chimeric nanobody 2-C07"}, "B6": {"name": "HER2 VHH-FC1 fusion protein 1-C10 (Fc fusion)", "chain": "QVQLVESGGDLVQPGGSLRLSCATSGLTFRRYELKWYRQAPGKERELVAGITPASGSRNYADSVKGRFTISRDDAKMTVYLQMNSLEPEDTAVYYCNAYWMIPQHIENNYWGKGTLVTVSSEPKSSDKTHTCPPCPAPEFEGGPSVFLFPPKPKDTLMISRTPEVTCVVVDVSHEDPEVKFNWYVDGVEVHNAKTKPREEQYNSTYRVVSVLTVLHQDWLNGKEYKCKVSNKALPASIEKTISKAKGQPREPQVYTLPPSRDELTKNQVSLTCLVKGFYPSDIAVEWESNGQPENNYKTTPPVLDSDGSFFLYSKLTVDKSRWQQGNVFSCSVMHEALHNHYTQKSLSLSPGK", "notes": "25; also called 1-C10-FC1; chimeric nanobody 1-C10"}}, "key": {"[1]": {"biological_target": "T1, human HER2 His6 protein, extracellular domain (NCBI NP_004439.2, Met 1-Thr 652), C-terminal polyhistidine tag (human, UniProt P04626 23-652)", "T1 construct": "range 1-652; The stated range includes Met 1; also called HER2-ECD; human HER2-ECD", "test": "ForteBio OCTET R2, antibody captured on Protein A sensor, HER2 protein in solution, 25 °C", "description": "(§1) […] detection was performed and Protein A sensor was used to solidify the antibody at a curing height of approximately […]. […] Affinity detection: equilibrium for 60 seconds, binding for 180 seconds, dissociation for 180 seconds, detection at 25° C., and kinetic characterization analysis was performed using the ForteBio OCTET R2 system."}, "[2]": {"biological_target": "T1, human HER2 His6 protein, extracellular …", "test": "ELISA, HER2 protein coated at 1 µg/mL, detection with HRP-labelled protein A, OD 450 nm", "description": "(§2) HER2 protein was diluted to 1 μg/mL with coating solution, coated onto ELISA plate, 100 μL/well, 4° C., overnight. The excess antigens were washed off. The plate was blocked with 1% BSA at room temperature for 2 hours, then 5-fold gradient diluted monoclonal antibodies were added at 100 μL/well, and the plate was incubated at room temperature for 1 hour; the unbound antibodies were washed off, and suitable concentration of horseradish peroxidase labeled Staphylococcus protein A was added at 100 μL/well, and the plate was incubated at room temperature for 0.5 hours. The unbound secondary antibody was washed off. TMB colorimetric solution was added and reacted for about 15 minutes. 1M HCl at 50 μL/well was added to terminate the colorimetric reaction, then the absorbance was measured at 450 nm and the data was analyzed."}, "[3]": {"biological_target": "T1, human HER2 His6 protein, extracellular …", "test": "ELISA, HER2 protein coated at 1 µg/mL, detection with HRP-labelled protein A", "description": "as §2"}, "[4]": {"biological_target": "T1, human HER2 His6 protein, extracellular …", "test": "called SPR, run on ForteBio OCTET R2; antibody captured on Protein A sensor, HER2 protein at 500-31.3 nM as analyte, 25 °C", "description": "as §1"}, "[5]": {"biological_target": "T2, HER2 receptor on the surface of NCI-N87 cells (human, UniProt P04626 23-1255)", "T2 construct": "whole, on cells; also called HER2 on tumor cell surface", "test": "flow cytometry on NCI-N87 cells, PE-labelled secondary antibody", "description": "(§3) HER2 overexpressing gastric cancer cell line NCI-N87 was used as the target cell. 100 μL of the test antibody diluted in a 10 folds gradient was used as the primary antibody. It was mixed with 1×10⁵ tumor cells suspended in 100 μL RPMI-1640 serum-free medium at final concentrations of 10 μg/mL, 1 μg/mL, and 0.1 μg/mL. The cells were then incubated at 4° C. for 1 hour, washed twice with PBS to remove unbound primary antibodies, and incubated with 200 μL, 2 μg/mL, PE labeled secondary antibodies at 4° C. for 30 minutes. The cells were washed twice with PBS to remove unbound secondary antibodies. Finally, the cells were resuspended in 200 μL PBS and analyzed by flow cytometry to determine the binding affinity of the test antibody to HER2 on the corresponding cell surface."}, "[6]": {"biological_target": "T2, HER2 receptor on the surface of NCI-N87 …", "test": "flow cytometry on NCI-N87 cells, PE-labelled secondary antibody", "description": "as §3", "remark": "listed apart in the source"}}, "note": "Where two headings read alike, the source gives them in different places."}
{"binder": "B1", "values": [{"measurement": "koff", "setting": "[1]", "result": 0.0108, "unit": "s⁻¹"}, {"measurement": "kon", "setting": "[1]", "result": 466000, "unit": "M⁻¹ s⁻¹"}, {"measurement": "EC50", "setting": "[2]", "result": 0.05, "unit": "nM"}, {"measurement": "EC50", "setting": "[3]", "result": 0.004, "unit": "µg/mL"}, {"measurement": "Kd", "setting": "[4]", "result": 23.2, "unit": "nM"}, {"measurement": "EC50", "setting": "[5]", "result": 1.67, "unit": "nM"}, {"measurement": "Max MFI", "setting": "[5]", "result": 234000}, {"measurement": "EC50", "setting": "[6]", "result": 0.13, "unit": "µg/mL"}]}
{"binder": "B2", "values": [{"measurement": "koff", "setting": "[1]", "result": 0.0118, "unit": "s⁻¹"}, {"measurement": "kon", "setting": "[1]", "result": 974000, "unit": "M⁻¹ s⁻¹"}, {"measurement": "EC50", "setting": "[2]", "result": 0.125, "unit": "nM"}, {"measurement": "EC50", "setting": "[3]", "result": 0.01, "unit": "µg/mL"}, {"measurement": "Kd", "setting": "[4]", "result": 12.1, "unit": "nM"}, {"measurement": "EC50", "setting": "[5]", "result": 1.39, "unit": "nM"}, {"measurement": "Max MFI", "setting": "[5]", "result": 269000}, {"measurement": "EC50", "setting": "[6]", "result": 0.109, "unit": "µg/mL"}]}
{"binder": "B3", "values": [{"measurement": "EC50", "setting": "[2]", "result": 0.128, "unit": "nM"}, {"measurement": "EC50", "setting": "[3]", "result": 0.01, "unit": "µg/mL"}, {"measurement": "EC50", "setting": "[5]", "result": 2.48, "unit": "nM"}, {"measurement": "Max MFI", "setting": "[5]", "result": 250000}, {"measurement": "EC50", "setting": "[6]", "result": 0.199, "unit": "µg/mL"}]}
{"binder": "B4", "values": [{"measurement": "koff", "setting": "[1]", "result": 0.0108, "unit": "s⁻¹"}, {"measurement": "kon", "setting": "[1]", "result": "1.22e+06", "unit": "M⁻¹ s⁻¹"}, {"measurement": "EC50", "setting": "[2]", "result": 0.069, "unit": "nM"}, {"measurement": "EC50", "setting": "[3]", "result": 0.005, "unit": "µg/mL"}, {"measurement": "Kd", "setting": "[4]", "result": 8.9, "unit": "nM"}, {"measurement": "EC50", "setting": "[5]", "result": 1.86, "unit": "nM"}, {"measurement": "Max MFI", "setting": "[5]", "result": 245000}, {"measurement": "EC50", "setting": "[6]", "result": 0.144, "unit": "µg/mL"}]}
{"binder": "B5", "values": [{"measurement": "koff", "setting": "[1]", "result": 0.00251, "unit": "s⁻¹"}, {"measurement": "kon", "setting": "[1]", "result": 338000, "unit": "M⁻¹ s⁻¹"}, {"measurement": "EC50", "setting": "[2]", "result": 0.07, "unit": "nM"}, {"measurement": "EC50", "setting": "[3]", "result": 0.005, "unit": "µg/mL"}, {"measurement": "Kd", "setting": "[4]", "result": 7.42, "unit": "nM"}, {"measurement": "EC50", "setting": "[5]", "result": 1.68, "unit": "nM"}, {"measurement": "Max MFI", "setting": "[5]", "result": 241000}, {"measurement": "EC50", "setting": "[6]", "result": 0.131, "unit": "µg/mL"}]}
{"binder": "B6", "values": [{"measurement": "koff", "setting": "[1]", "result": 0.001, "unit": "s⁻¹"}, {"measurement": "kon", "setting": "[1]", "result": 217000, "unit": "M⁻¹ s⁻¹"}, {"measurement": "EC50", "setting": "[2]", "result": 0.22, "unit": "nM"}, {"measurement": "EC50", "setting": "[3]", "result": 0.017, "unit": "µg/mL"}, {"measurement": "Kd", "setting": "[4]", "result": 4.61, "unit": "nM"}, {"measurement": "EC50", "setting": "[5]", "result": 2.64, "unit": "nM"}, {"measurement": "Max MFI", "setting": "[5]", "result": 240000}, {"measurement": "EC50", "setting": "[6]", "result": 0.209, "unit": "µg/mL"}]}
